Assay [1] deals with CLP-induced sepsis. Briefly: in vivo vascular permeability assay (Evans blue leakage). The arrangement: species or system mouse. The note with it: CLP-operated mice, intravenous, FIG. 20. The method, then:
CLP-operated mice were injected with PC-Gla with TRAP, TFG, or TFMG intravenously. After 6 h, 1% Evans blue dye solution in normal saline was injected intravenously into each mouse. Thirty minutes later, the mice were sacrificed, and the peritoneal exudates were collected after being washed with normal saline (5 mL) and centrifuged at 200×g for 10 min. The absorbance of the supernatant was read at 650 nm. The vascular permeability was expressed in terms of dye (mg/mouse), which leaked into the peritoneal cavity according to a standard curve of Evans blue dye, as previously described.

In assay [2] the test system is CLP-induced sepsis. Briefly: H&E staining and histopathological examination of lung in CLP-induced sepsis. The note with it: for interstitial edema, infiltration of inflammatory cells and damage of pulmonary architecture: 200 nM intravenously 6 h after CLP, lungs 96 h after CLP, FIG. 15; for histopathologic score of pulmonary injury: in comparison with co-administration of PC-Gla and TRAP, FIG. 16. It is filed as in vivo, mouse. The method, then:
(§1) To induce inflammation, male mice were anesthetized with 2% isoflurane (JW Pharmaceutical, Republic of Korea) in oxygen delivered via a small rodent gas anesthesia machine (RC2, Vetequip, Pleasanton, Calif.), first in a breathing chamber and then via a facemask. They were allowed to breathe spontaneously during this procedure. The CLP-induced inflammation model was prepared as previously described. In brief, a 2-cm midline incision was made to expose the cecum and adjoining intestine. The cecum was then tightly ligated with a 3.0-silk suture at 5.0 mm from the cecal tip and punctured once using a 22-gauge needle for the induction of high grade inflammation. It was then squeezed gently to extrude a small amount of feces from the perforation site and returned to the peritoneal cavity. The laparotomy site was then sutured with 4.0-silk. In sham control animals, the cecum was exposed but not ligated or punctured and then returned to the abdominal cavity. This protocol was approved by the Animal Care Committee at Kyungpook National University prior to the conduct of the study (IRP No, KNU 2012-13).
Male C57BL/6 mice underwent CLP and were administered PC-Gla with TRAP, TFG, or TFMG (200 nM) intravenously at 6 h after CLP (n=5). Mice were euthanized 96 h after CLP. To analyze the phenotypic change of the lungs in mice, lung samples were removed from each mouse, washed tree times in PBS (pH 7.4) to remove remaining blood, fixed in 4% formaldehyde solution (Junsei, Tokyo, Japan) in PBS, pH 7.4 for 20 h at 4° C. After fixation, the samples were dehydrated through ethanol series, embedded in paraffin, sectioned into 4-μm sections, and placed on a slide. The slides were de-paraffinized in a 60° C. oven, rehydrated, and stained with hematoxylin (Sigma). To remove over-staining, the slides were quick dipped three times in 0.3% acid alcohol, and counterstained with eosin (Sigma). They are then washed in ethanol series and xylene, and then coverslipped. Light microscopic analysis of lung specimens was performed by blinded observation to evaluate pulmonary architecture, tissue edema, and infiltration of the inflammatory cells. The results were classified into four grades where Grade 1 represented normal histopathology; Grade 2 represented minimal neutrophil leukocyte infiltration; Grade 3 represented moderate neutrophil leukocyte infiltration, perivascular edema formation, and partial destruction of pulmonary architecture; and Grade 4 included dense neutrophil leukocyte infiltration, abscess formation, and complete destruction of pulmonary architecture.

Assay [3] deals with CLP-induced sepsis. Briefly: survival in animal model of CLP-induced sepsis. As to conditions: for survival rate: in comparison with PC-Gla and TRAP co-administration group, FIG. 14; for overall effectiveness in sepsis treatment: taken together, in comparison with PC-Gla and TRAP co-administered group. The class given is in vivo, mouse. Here is the method: Male C57BL/6 mice (6-7 weeks of age, 18-20 g) were purchased from Orient Biotech (Seongnam, Gyeonggi Province, Republic of Korea) and used after 12 days of acclimation. Five mice per cage were housed under the conditions of a controlled temperature (20-25° C.), humidity (40-45%), and 12:12 h day/night cycle, while being fed with a normal rodent pellet and water ad libitum. All animals were treated according to the Guidelines for the Care and Use of Laboratory Animals issued by Kyungpook National University.
as §1
All experiments were performed independently at least three times. Values are expressed as means±SEM. The statistical significance of differences between test groups was evaluated using SPSS for Windows, version 16.0 (SPSS, Chicago, Ill.). Statistical relevance was determined by one-way analysis of variance (ANOVA) and Tukey's post-test. P values less than 0.05 were considered to indicate a statistical significance. Survival analysis of CLP-induced sepsis was performed using Kaplan-Meier analysis.

The subject of assay [4] is LPS-stimulated HUVEC cells. Briefly: cell-cell adhesion assay (leukocytes to HUVEC monolayers). It is filed as cell-based, human. The note with it: HUVECs, LPS 100 ng/mL 4 h, FIG. 21B. Here is the method:
Adherence of monocytes to endothelial cells was evaluated by fluorescent labeling of monocytes, as previously described. Briefly, monocytes were labeled with 5 μM Vybrant DiD for 20 min at 37° C. in phenol red-free RPMI containing 5% FBS. After washing, the cells (1.5×10^6 cells/mL, 200 μL/well) were resuspended in adhesion medium (RPMI containing 2% fetal bovine serum and 20 mM HEPES). The cells were then added to confluent monolayers of HUVECs in 96-well plates. Prior to the addition of cells, HUVECs were treated PC-Gla with TRAP, TFG, or TFMG for 6 h, followed by treatment with LPS (100 ng/mL, 4 h). Quantification of cell adhesion was determined as previously described.

Assay [5] relates to VCAM-1, ICAM-1 and E-selectin on HUVECs. Briefly: expression of cell adhesion molecules (CAMs), whole-cell ELISA. It is filed as cell-based, human. The note with it: LPS 100 ng/mL, FIG. 21A. The method, then: The expression of vascular cell adhesion molecule-1 (VCAM-1), intercellular adhesion molecule-1 (ICAM-1), and E-selectin on HUVECs were determined by a whole-cell ELISA as described. Briefly, confluent monolayers of HUVECs were treated with PC-Gla with TRAP, TFG, or TFMG for 6 h followed by LPS (100 ng/mL) for 16 h (VCAM-1 and ICAM-1) or 24 h (E-Selectin). After washing, mouse anti-human monoclonal VCAM-1 (100 μM; clone; 6C7.1), ICAM-1 (clone; P2A4) and E-selectin (clone; P3H3) antibodies (Millipore Corporation, 1:50 each) were added. After 1 h (37° C., 5% CO2), the cells were washed three times and then 1:2000 peroxidase-conjugated anti-mouse IgG antibody (100 μl; Sigma) was added for 1 h. The cells were washed again three times and developed using the o-phenylenediamine substrate (Sigma). Colorimetric analysis was performed by measuring absorbance at 490 nm. All measurements were performed in triplicate wells.

Assay [6] relates to CLP-induced sepsis. Briefly: serum organ injury markers (ALT, AST, creatinine, BUN, LDH) in CLP-induced sepsis. The note with it: FIG. 17. It is filed as in vivo, mouse. Here is the method: as §1
Fresh serum was used for assaying aspartate transaminase (AST), alanine transaminase (ALT), blood urea nitrogen (BUN), creatinine, and LDH using biochemical kits (Mybiosource). To determine the concentrations of IL-6, IL-10, and TNF-α, commercially available ELISA kits were used according to the manufacturer's protocol (R&D Systems). Values were measured using an ELISA plate reader (Tecan, Austria GmbH, Austria).

B1: TFMG: as TFG with an MMP-2 cleavable linker (GPLGLAG) between ferritin fragment C-terminus and PC-Gla (apparently SEQ ID NO: 15) (protein)
chain: MGGTTFLLRNASGHMSSQIRQNYSTDVEAAVNSLVNLYLQASYTYLSLGFYFDRDDVALEGVSHFFRELAEEKREGYERLLKMQNQRGGRIFLQDIKKPAEDEWGKTPDAMKAAMALEKKLNQALLDLHALGSARTDPHLCDFLETHFLDEEVKLIKKMGDHLTNLHRLGGGSEFVDGGGSGTSGPLGLAGANSFLEELRHSSLERECIEEICDFEEAKEIFQNVDDTLAFWSKHVLEHHHHHH
modifications: Fusion polypeptide (2)
Take B1: the “in vivo vascular permeability” value in assay [1] was “alleviated”. Also, in assay [2], the “interstitial edema, infiltration of inflammatory cells and damage of pulmonary architecture” value is on record as “significantly alleviated”; the “histopathologic score of pulmonary injury” value is reported as “significantly superior effect”. Besides, in assay [3], the survival rate result was “significantly improved” and the “overall effectiveness in sepsis treatment” value is “more effective antiseptic than TFG”. For the same molecule, the adhesion of leukocytes entry in assay [4] is “inhibited”. Moreover, in assay [5], the “LPS-mediated upregulation of CAMs” value was “inhibited”. In assay [6], the “toxicity indicator for general organs (LDH)” value is on record as “considerably improved”; the “toxicity indicators for kidneys (creatinine and BUN)” value is “considerably improved”; the “toxicity indicators for liver (ALT and AST)” value is given as “considerably improved”.

B2: TFG: fusion polypeptide: TRAP at N-terminus and PC-Gla at C-terminus of short ferritin monomer fragment, forms nanocage (apparently SEQ ID NO: 14) (protein)
chain: MGGTTFLLRNASGHMSSQIRQNYSTDVEAAVNSLVNLYLQASYTYLSLGFYFDRDDVALEGVSHFFRELAEEKREGYERLLKMQNQRGGRIFLQDIKKPAEDEWGKTPDAMKAAMALEKKLNQALLDLHALGSARTDPHLCDFLETHFLDEEVKLIKKMGDHLTNLHRLGGGSEFVDGGGSGTSANSFLEELRHSSLERECIEEICDFEEAKEIFQNVDDTLAFWSKHVLEHHHHHH
modifications: Fusion polypeptide (1)
B2: in assay [1], the “in vivo vascular permeability” value is given as “alleviated”. Moreover, in assay [2], the “interstitial edema, infiltration of inflammatory cells and damage of pulmonary architecture” value is on record as “significantly alleviated”; the “histopathologic score of pulmonary injury” value was “significantly superior effect”. In addition, in assay [3], the survival rate entry was “significantly improved” and the “overall effectiveness in sepsis treatment” value was “significantly effective”. Besides, the adhesion of leukocytes result in assay [4] is “inhibited”. Further, the “LPS-mediated upregulation of CAMs” value in assay [5] is listed as “inhibited”. Besides, in assay [6], the “toxicity indicator for general organs (LDH)” value is “considerably improved”; the “toxicity indicators for kidneys (creatinine and BUN)” value is reported as “considerably improved”; the “toxicity indicators for liver (ALT and AST)” value is reported as “considerably improved”.

The values above are taken from patent US10513545B2, “Fusion polypeptide in which anti-inflammatory polypeptide and ferritin monomer fragment are bound and pharmaceutical composition for preventing and treating inflammatory diseases, containing same as active ingredient” (KYUNGPOOK NATIONAL UNIVERSITY INDUSTRY-ACADEMIC COOPERATION …, priority 2015, dated 2019).
